Measurements: PMC9876794 (2022)

Biological target: SARS-CoV-2 spike RBD (WT) (Severe acute respiratory syndrome …, UniProt P0DTC2)
Test: ELISA
Set-up: unit not given here

B1: D184 (antibody, V domains shown)
VH: QVQLVQSGAEVKKPGSSVKVSCKASGGTFSSYAISWVRQAPGQGLEWMGGIIPIFGTANYAQKFQGRVTITADESTSTAYMELSSLRSEDTAVYYCARGRGSTYYYYYYMDVWGKGTTVTVSS
VL: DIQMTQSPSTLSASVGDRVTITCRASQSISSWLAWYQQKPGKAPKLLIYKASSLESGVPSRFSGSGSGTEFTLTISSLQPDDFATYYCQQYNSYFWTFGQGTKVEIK
Question: With B1 as the binder, how does the binding score read?
Answer: Its binding score is 8050.

B2: D073 (antibody, V domains shown)
VH: QLQLQESGPGLVKPSETLSLTCTVSGGSMSSGSYYWGWIRQPPGKGLEWIGSIFYSGSTYYNPSLKSRVTISIDTSKRQFSLNLRSVTAADKAVYYCARQDIMGYSDVWGEGTTVTVSS
VL: EIVLTQSPGTLSLSPRERATLSCRASQSITSTYFAWYQQRPGQAPRLLIYDGSRRATGIPDRFSASGSGTDFTLTISGLEAEDFAVYYCQQYLRLPYTFGQGTKLEIK
Question: Which binding score does the source give for B2 here?
Answer: Its binding score is greater than 10000.

B3: D107 (antibody, V domains shown)
VH: QVQLVQSGAEVKKPGASVKVSCKASGYTFTSYDINWVRQATGQGLEWMGWMNPNSGNTGYAQKFQGRVTMTRNPSISTAYMELSSLTSDDTAVYYCATALPWDGYNPYYFHYWGQGTLVTVSS
VL: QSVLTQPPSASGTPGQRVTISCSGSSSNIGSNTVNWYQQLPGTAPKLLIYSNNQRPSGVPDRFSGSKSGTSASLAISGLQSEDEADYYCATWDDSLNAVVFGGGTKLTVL
Question: With B3 as the binder, how does the binding score read?
Answer: The binding score was greater than 10000.

B4: D104 (antibody, V domains shown)
VH: QVQLQQWGAGLLKPSETLSLTCAVYGESFSGHYWTWIRQPPGKGLEWIGEINHRGSTDYHASLKSRVSISIDTSKNQFSLRLKSVTAAETAIYYCARGRSAWPRRSFAFWGQGILVTVSS
VL: DIQMTQSPSTLSASVGDRVTITCRASQSISTSLAWYQQKPGKAPKLLIYESSTLESGIPSRFSGSGFRTGFTLTISSLQPDDVATYYCQHYNASPYTFGQGTKLEIK
Question: How did the binding score turn out when B4 was run?
Answer: The binding score was greater than 10000.

B5: D079 (antibody, V domains shown)
VH: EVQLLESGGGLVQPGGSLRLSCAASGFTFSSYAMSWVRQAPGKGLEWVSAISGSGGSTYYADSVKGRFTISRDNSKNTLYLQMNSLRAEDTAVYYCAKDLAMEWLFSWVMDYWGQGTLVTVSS
VL: QSALTQPASVSGSPGQSITISCTGTSSDVGGYNYVSWYQQHPGKAPKIMIYDVSNRPSGVFNRFFGSKSGNTASLTIFGLQAEDEADYYCSSYTSSSTLGVFGGGTKLTVL
Question: How did the binding score turn out when B5 was run?
Answer: The binding score was greater than 10000.

B6: C2706 (antibody, V domains shown)
VH: EVQLVESGGGVVQPGGSLRLSCAASGFTFSSYGMHWVRQAPGKGLEWVAFIRYDGSNKYYADSVKGRFTISRDNSKNTLYLQMNSLRAEDTAVYYCAKVGGRYSGYEGYFDYWGQGTLVTVSS
VL: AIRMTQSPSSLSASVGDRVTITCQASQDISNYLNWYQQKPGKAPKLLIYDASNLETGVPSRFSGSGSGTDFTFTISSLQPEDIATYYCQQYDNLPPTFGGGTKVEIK
Question: With B6 as the binder, how does the binding score read?
Answer: Its binding score is greater than 10000.

B7: D030 (antibody, V domains shown)
VH: QVQLVQSGAEVKKPGASVKVSCKASGYTFTSYDINWVRQATGQGLEWMGWMNPNSGNTGYAQKFQGRVTMTRNTSISTAYMELSSLRSEDTAVYYCARDGSGPYDILTGYGMDVWGQGTTVTVSS
VL: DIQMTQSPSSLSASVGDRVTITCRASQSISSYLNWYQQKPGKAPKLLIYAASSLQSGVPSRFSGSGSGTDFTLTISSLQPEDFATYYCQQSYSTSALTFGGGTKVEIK
Question: For B7, which binding score is on record?
Answer: The binding score was greater than 10000.

B8: D032 (antibody, V domains shown)
VH: QVQLVESGGGVVQPGRSLRLSCAASGFTFSSYGMHWVRQAPGKGLEWVAVISYDGSNKYYADSVKGRFTISRDNSKNTLYLQMNSLRAEDTAVYYCAKVETVVDSDYYYYYGMDVWGQGTTVTVSS
VL: SYVLTQPPSVSVSPGQTARITCSGDALPKQYAYWYQQKPGQAPVLVIYKDSERPSGIPERFSGSSSGTTVTLTISGVQAEDEADYYCQSADSSGTYWVFGGGTKLTVL
Question: Which binding score does the source give for B8 here?
Answer: Its binding score is greater than 10000.

B9: D054 (antibody, V domains shown)
VH: QVQLVQSGAEVKKPGASVKVSCKASGYTFTSYYMHWVRQAPGQGLEWMGIINPSGGSTSYAQKFQGRVTMTRDTSTSTVYMELSSLRSEDTAVYYCARESGTGFGELPKGGPFDYWGQGTLVTVSS
VL: not shown
Question: Which binding score does the source give for B9 here?
Answer: The binding score was greater than 10000.

B10: D137 (antibody, V domains shown)
VH: QVQLVQSGAEVKKPGASVKVSCKASGYTFTSYDINWVRQATGQGLEWMGWMNPNSGNTGYAQKFQGRVTMTRNTSISTAYMELSSLRSEDTAVYYCARAYCSGGSCYSQPWGQGTLVTVSS
VL: QSALTQPPSASGSPGQSVTISCTGTSSDVGGYNYVSWYQQHPGKAPKLMIYEVSKRPSGVPDRFSGSKSGNTASLTVSGLQAEDEADYYCSSYAGSNNWVFGGGTKLTVL
Question: With B10 as the binder, how does the binding score read?
Answer: Its binding score is 395.

B11: D166 (antibody, V domains shown)
VH: EVQLVESGGGLVQPGGSLRLSCAASGFTFSSYDMHWVRQATGKGLEWVSAIGTAGDTYYPGSVKGRFTISRENAKNSLYLQMNSLRAGDTAVYYCARVSYDSSGYYWVFDYWGQGTLVTVSS
VL: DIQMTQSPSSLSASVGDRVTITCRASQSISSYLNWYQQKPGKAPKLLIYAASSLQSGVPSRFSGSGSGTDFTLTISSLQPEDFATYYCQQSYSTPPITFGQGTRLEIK
Question: B11 was tested. Which binding score did it give?
Answer: Its binding score is 2870.
